From IntAct's records for PubMed 21771788 come the findings set out here.

First the molecules themselves.
B1: Cytoplasmic 60S subunit biogenesis factor ZNF622 (Homo sapiens), Q969S3 (parent)
chain: MATYTCITCRVAFRDADMQRAHYKTDWHRYNLRRKVASMAPVTAEGFQERVRAQRAVAEEESKGSATYCTVCSKKFASFNAYENHLKSRRHVELEKKAVQAVNRKVEMMNEKNLEKGLGVDSVDKDAMNAAIQQAIKAQPSMSPKKAPPAPAKEARNVVAVGTGGRGTHDRDPSEKPPRLQWFEQQAKKLAKQQEEDSEEEEEDLDGDDWEDIDSDEELECEDTEAMDDVVEQDAEEEEAEEGPPLGAIPITDCLFCSHHSSSLMKNVAHMTKDHSFFIPDIEYLSDIKGLIKYLGEKVGVGKICLWCNEKGKSFYSTEAVQAHMNDKSHCKLFTDGDAALEFADFYDFRSSYPDHKEGEDPNKAEELPSEKNLEYDDETMELILPSGARVGHRSLMRYYKQRFGLSRAVAVAKNRKAVGRVLQQYRALGWTGSTGAALMRERDMQYVQRMKSKWMLKTGMKNNATKQMHFRVQVRF
B2: Mitogen-activated protein kinase kinase kinase 5 (Homo sapiens), Q99683 (parent)
chain: MSTEADEGITFSVPPFAPSGFCTIPEGGICRRGGAAAVGEGEEHQLPPPPPGSFWNVESAAAPGIGCPAATSSSSATRGRGSSVGGGSRRTTVAYVINEASQGQLVVAESEALQSLREACETVGATLETLHFGKLDFGETTVLDRFYNADIAVVEMSDAFRQPSLFYHLGVRESFSMANNIILYCDTNSDSLQSLKEIICQKNTMCTGNYTFVPYMITPHNKVYCCDSSFMKGLTELMQPNFELLLGPICLPLVDRFIQLLKVAQASSSQYFRESILNDIRKARNLYTGKELAAELARIRQRVDNIEVLTADIVINLLLSYRDIQDYDSIVKLVETLEKLPTFDLASHHHVKFHYAFALNRRNLPGDRAKALDIMIPMVQSEGQVASDMYCLVGRIYKDMFLDSNFTDTESRDHGASWFKKAFESEPTLQSGINYAVLLLAAGHQFESSFELRKVGVKLSSLLGKKGNLEKLQSYWEVGFFLGASVLANDHMRVIQASEKLFKLKTPAWYLKSIVETILIYKHFVKLTTEQPVAKQELVDFWMDFLVEATKTDVTVVRFPVLILEPTKIYQPSYLSINNEVEEKTISIWHVLPDDKKGIHEWNFSASSVRGVSISKFEERCCFLYVLHNSDDFQIYFCTELHCKKFFEMVNTITEEKGRSTEEGDCESDLLEYDYEYDENGDRVVLGKGTYGIVYAGRDLSNQVRIAIKEIPERDSRYSQPLHEEIALHKHLKHKNIVQYLGSFSENGFIKIFMEQVPGGSLSALLRSKWGPLKDNEQTIGFYTKQILEGLKYLHDNQIVHRDIKGDNVLINTYSGVLKISDFGTSKRLAGINPCTETFTGTLQYMAPEIIDKGPRGYGKAADIWSLGCTIIEMATGKPPFYELGEPQAAMFKVGMFKVHPEIPESMSAEAKAFILKCFEPDPDKRACANDLLVDEFLKVSSKKKKTQPKLSALSAGSNEYLRSISLPVPVLVEDTSSSSEYGSVSPDTELKVDPFSFKTRAKSCGERDVKGIRTLFLGIPDENFEDHSAPPSPEEKDSGFFMLRKDSERRATLHRILTEDQDKIVRNLMESLAQGAEEPKLKWEHITTLIASLREFVRSTDRKIIATTLSKLKLELDFDSHGISQVQVVLFGFQDAVNKVLRNHNIKPHWMFALDSIIRKAVQTAITILVPELRPHFSLASESDTADQEDLDVEDDHEEQPSNQTVRRPQAVIEDAVATSGVSTLSSTVSHDSQSAHRSLNVQLGRMKIETNRLLEELVRKEKELQALLHRAIEEKDQEIKHLKLKSQPIEIPELPVFHLNSSGTNTEDSELTDWLRVNGADEDTISRFLAEDYTLLDVLYYVTRDDLKCLRLRGGMLCTLWKAIIDFRNKQT
partner: B1 chain

In the first assay the parent is B1. The following applies: with m3k5_human MAP3K5, Q99683.
Consider C308S, for which the “effect of a mutation on the interaction” value is given as “decreasing interaction”.

Regarding C305S;C308S, the “effect of a mutation on the interaction” value is listed as “disrupting interaction”.

For C305S, the “effect of a mutation on the interaction” value is “decreasing interaction”.

In the next assay the parent is B2. The note with it: with zn622_human ZNF622, Q969S3.
Take C1351S;C1360S: the “effect of a mutation on the interaction” value was “disrupting interaction”.

Turning to C1351S, the “effect of a mutation on the interaction” value is reported as “decreasing interaction”.

Consider C1360S, for which the “effect of a mutation on the interaction” value is “decreasing interaction”.

The variants in a further assay derive from B2. The following applies: with zn622_human ZNF622, Q969S3. The source holds these as a separate data set.
Regarding C1351S;C1360S, the “effect of a mutation on the interaction” value is “disrupting interaction”.
